Reference: US20160083465A1 (AVEO PHARMACEUTICALS, published 2016)
Where a chain is given by its changes, count along the chain named.

T1: mouse IgG1 Fc-mature human GDF15 fusion protein (mFc-rhGDF15) (mouse; human)
T1 construct: Made in CHOK1SV cells, purified by Protein A and size exclusion; also called mouse Fc fused to human GDF15
T1 chain: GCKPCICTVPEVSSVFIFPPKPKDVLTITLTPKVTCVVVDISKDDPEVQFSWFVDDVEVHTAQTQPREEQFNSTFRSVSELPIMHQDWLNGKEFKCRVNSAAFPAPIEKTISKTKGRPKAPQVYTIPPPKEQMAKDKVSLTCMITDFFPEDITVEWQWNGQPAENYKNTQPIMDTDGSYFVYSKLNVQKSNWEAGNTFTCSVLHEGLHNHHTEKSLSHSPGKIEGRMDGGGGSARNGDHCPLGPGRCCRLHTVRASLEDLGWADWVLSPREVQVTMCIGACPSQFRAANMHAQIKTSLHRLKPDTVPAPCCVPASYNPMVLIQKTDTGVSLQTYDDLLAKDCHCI

B1: Hu01G06-105 (antibody, human IgG1, kappa)
heavy: not shown
light: DIQMTQSPSSLSASVGDRVTITCRTSENLHNYLAWYQQKPGKSPKLLIYDAKTLADGVPSRFSGSGSGTDYTLTISSLQPEDFATYYCQHFWSSPYTFGQGTKLEIKRTVAAPSVFIFPPSDEQLKSGTASVVCLLNNFYPREAKVQWKVDNALQSGNSQESVTEQDSKDSTYSLSSTLTLSKADYEKHKVYACEVTHQGLSSPVTKSFNRGEC
notes: Humanized, human IgG1 kappa; tested in supernatant
B2: Hu01G06-113 (antibody, human IgG1, kappa)
heavy: not shown
light: B1 light with S43A
notes: as for B1
B3: Hu01G06-100 (antibody, human IgG1, kappa)
heavy: not shown
light: B1 light with I48V
notes: as for B1
B4: Hu01G06-106 (antibody, human IgG1, kappa)
heavy: not shown
light: B1 light
notes: as for B1
B5: Hu01G06-108 (antibody, human IgG1, kappa)
heavy: not shown
light: B1 light
notes: as for B1
B6: Hu01G06-112 (antibody, human IgG1, kappa)
heavy: not shown
light: B1 light with S43A
notes: as for B1
B7: Hu01G06-109 (antibody, human IgG1, kappa)
heavy: not shown
light: B1 light
notes: as for B1
B8: Hu01G06-104 (antibody, human IgG1, kappa)
heavy: not shown
light: B1 light with I48V
notes: as for B1
B9: Hu01G06-101 (antibody, human IgG1, kappa)
heavy: not shown
light: B1 light with I48V
notes: as for B1
B10: Hu01G06-102 (antibody, human IgG1, kappa)
heavy: not shown
light: B1 light with I48V
notes: as for B1
B11: Hu01G06-110 (antibody, human IgG1, kappa)
heavy: not shown
light: B1 light with S43A
notes: as for B1
B12: Hu01G06-111 (antibody, human IgG1, kappa)
heavy: not shown
light: B1 light with S43A
notes: as for B1
B13: Hu01G06-103 (antibody, human IgG1, kappa)
heavy: not shown
light: B1 light with I48V
notes: as for B1
B14: Hu01G06-107 (antibody, human IgG1, kappa)
heavy: not shown
light: B1 light
notes: as for B1
B15: Hu01G06-114 (antibody, human IgG1, kappa)
heavy: not shown
light: B1 light with S43A
notes: as for B1

Target: T1, mouse IgG1 Fc-mature human GDF15 fusion …
Assay: SPR Biacore T100, 37 C, antibody from supernatant captured by anti-human IgG Fc, antigen in solution

Kd [pM]	koff [s⁻¹]	kon [M⁻¹ s⁻¹]	Binder
130	0.00056	4.3e+06	B1
110	0.00048	4.5e+06	B2
150	0.00062	4.1e+06	B3
160	0.0007	4.3e+06	B4
120	0.00046	4.2e+06	B5
120	0.00053	4.7e+06	B6
130	0.00056	4.6e+06	B7
120	0.00052	4.5e+06	B8
140	0.00063	4.4e+06	B9
110	0.00046	4.4e+06	B10
140	0.00058	4.3e+06	B11
160	0.00066	4.3e+06	B12
110	0.00047	4.4e+06	B13
120	0.00047	4.1e+06	B14
130	0.00054	4.5e+06	B15
